Key:
[1] = molecular target: F-actin (UniProt P68135); test: co-sedimentation
[2] = molecular target: the molecule itself; test: gel electrophoresis
[3] = molecular target: CFP-SERCA1a (UniProt O14983-2 1-994); test: FRET or BRET

Molecule: first four N-terminal domains (C0-C1-motif-C2) of cardiac myosin binding protein C (domain or fragment)
- Kd [1]: 10 µM
- stoichiometry N [1]: 1 molar ratio

B1: WT phospholamban (in vitro sample) (natural protein)
chain: MEKVQYLTRSAIRRASTIEMPQQARQKLQNLFINFCLILICLLLICIIVMLL
- stoichiometry N [2]: 5

B2: YFP-PLB (natural protein)
chain: B1 chain
- fold higher apparent affinity relative to SERCA2a [3]: 2.6 fold
